The target in the assay is CARD9 CARD fused to mEos3.1 (human). Briefly: FRET or BRET; DAmFRET (Distributed Amphifluoric FRET) in living S. cerevisiae: protein fused to mEos3.1, GAL promoter, about 16 hr in galactose, part of mEos3.1 photoconverted to the acceptor form, AmFRET against expression level by flow cytometry. (In general: In BRET a luciferase serves as donor, and the signal depends on an acceptor being close.)

Regarding “CARD9 CARD fused to mEos3.1 (domain or fragment)”, the threshold concentration of polymerisation is 100 µM.
